Experimental findings from article PMC4224615 are described below.

Assay [1] concerns the target BG505 SOSIP.664 trimer (HIV-1 BG505). The assay is described as follows: negative-stain electron microscopy.
Assay [2] concerns the target BG505 SOSIP.664 trimer, captured by anti-histidine (SPR of Fig. 2d) (HIV-1 BG505). The assay is described as follows: SPR. (In general: In SPR one partner is held on a chip, and binding of the other changes the refractive index at the surface.)

For the substance 35O22 Fab, the stoichiometry N (Fabs per trimer) in assay [1] is 3. In the case of 35O22 antibody (full-length IgG), the Kd (as a rule, the concentration at which binding is half-saturated) in assay [2] amounted to 5.6 nM. This counts as single-digit nanomolar.
